Substitutions are numbered along the chain they refer to.
B1: 3-2: previously evolved parental 4-HT-dependent intein, derived from the 2-4 intein (protein)
chain: CLAEGTRIFDPVTGTTHRIEDVVDGRKPIHVVAVAKDGTLLARPVVSWFDQGTRDVIGLRIAGGAIVWATPDHKVLTEYGWRAAGELRKGDRVAGPGGSGNSLALSLTADQMVSALLDAEPPILYSEYDPTSPFSEASMMGLLTNLADRELVHMINWAKRVPGFVDLTLHDQAHLLECAWLEILMIGLVWRSMEHPGKLLFAPNLLLDRNQGKCVEGMVEIFDMLLATSSRFRMMNLQGEEFVCLKSIILLNSGVYTFLSSTLKSLEEKDHIHRALDKITDTLIHLMAKAGLTLQQQHQRLAQLLLILSHIRHMSNKGMEHLYSMKYTNVVPLYDLLLEMLDAHRLHAGGSGASRVQAFADALDDKFLHDMLAEELRYSVIREVLPTRRARTFDLEVEELHTLVAEGVVVHNC
B2: 37R3-2: evolved 4-HT-dependent intein, clone from 37° C. evolution, Round 3 (protein)
chain: B1 chain with V34A, I66T, C178R, T328K

How the values were obtained:
Gli1 = assay: 4-HT-dependent intein splicing in the Gli1 context in HEK293 cells; assay type: cell-based, human; details: 1 μM 4-HT
Text: (§1) p3XFlag-CMV-14 (Sigma) vectors with Gli1-intein (2-4 and 3-2), and Gli3T-intein (2-4 and 3-2) sequences were previously described (Yuen et al., 2006). p3XFlag-CMV-14 mCherry-intein (2-4 and 3-2) vectors were constructed by cloning the 2-4 and 3-2 intein sequences into the pRSET-B mCherry vector provided by Professor Roger Tsien (University of California at San Diego). The mCherry-intein 2-4 and mCherry-intein 3-2 sequences were then amplified using oligonucleotides introducing a 5′ EcoRI site and a 3′ BamHI site and ligated into EcoRI- and BamHI-digested p3XFlag-CMV-14 vector. 30R3-1 intein sequence and 37R3-2 intein sequence were amplified using the following oligonucleotides compatible with mCherry, Gli1, or Gli3 contexts.

Gli3T = assay: 4-HT-dependent intein splicing in the Gli3T context in HEK293 cells; assay type: cell-based, human; details: 1 μM 4-HT
Text: as §1

GFP [1] = details: HEK293, 37° C.
GFP [2] = details: yeast
mCherry = assay: 4-HT-dependent intein splicing in the mCherry context in HEK293 cells; assay type: cell-based, human; details: for spliced mCherry protein: HEK293, 37° C., 1 μM 4-HT
Text: as §1
HEK293 cells were grown in 10 cm dishes or 6-well plates and transfected with relevant mammalian vectors using Effectene. After growth in the absence of 4-HT or in the presence of 1 μM 4-HT for 24 hours, cells were trypsinized and resuspended in 500 μL of phosphate buffered saline with 1% FBS and 75 U/mL DNase (New England Biolabs). Cell fluorescence analysis was carried out on a BD LSRII cell analyzer.

[3] = test system: GFP, mCherry, Gli1, and Gli3T; assay: Intein splicing across all four proteins tested in mammalian cells; details: no 4-HT
Description: Western blots were performed using Nu-PAGE 12% Bis-Tris gels (Invitrogen) in 3-(Nmorpholino) propanesulfonic acid (MOPS)-sodium dodecyl sulfate (SDS) buffer (Invitrogen). SDSpolyacrylamide gel electrophoresis (PAGE) and Western blotting were performed using standard protocols. Gels were transferred onto polyvinylidene fluoride (PDVF) membranes (Millipore). Western blots were processed using a mouse anti-FLAG antibody (Sigma) as the primary antibody and a secondary Alexa Fluor 800-conjugated goat anti-mouse antibody (Li-cor Biosciences), then visualized and quantitated using an Odyssey imager (Li-cor Biosciences). […]
The inteins were inserted into mCherry, a red fluorescent protein, in place of Thr 113, the residue in mCherry that corresponds to the Cys residue used for intein insertion in GFP. As in the case of GFP, this placement positions the intein near the mid-point of a β-strand and abolishes mCherry fluorescence until splicing takes place (vide infra). […]
The splicing characteristics of the newly evolved inteins was investigated in the contexts of two additional mammalian proteins, Gli1 and Gli3T. […] The resulting constructs were introduced into HEK293 cells and splicing was evaluated by Western blot as described above.

[4] = HEK293, at 24 hours or 12 hours

Molecule | Gli1 protein spliced (Gli1; HEK293, after 12 hours) [%] | Gli1 protein spliced (Gli1; HEK293, after 24 hours) [%] | spliced Gli3T protein (Gli3T; HEK293, after 12 hours) [%] | spliced Gli3T protein (Gli3T; HEK293, after 24 hours) [%] | fraction of the total spliced GFP after 24 hours that was present after 12 hours (GFP [1]; 1 μM 4-HT) [%] | spliced GFP (GFP [1]; after 24 hours, 1 μM 4-HT) [%] | splicing in the absence of 4-HT (background splicing) (GFP [2]; 30° C., after 24 hours, no 4-HT) [%] | spliced protein (GFP [2]; 37° C., 1 hour after 4-HT treatment) | spliced mCherry protein (mCherry; after 12 hours) [%] | spliced mCherry protein (mCherry; after 24 hours) [%] | fold higher percentage of spliced mCherry than that of 3-2 intein (mCherry; [4]) [fold] | fold higher percentage of spliced mCherry than that of the 2-4 intein (mCherry; [4]) [fold] | background splicing in the absence of 4-HT [3] | background splicing in the absence of 4-HT (GFP [1]; GFP context, no 4-HT) | fold higher GFP splicing efficiency than the original 2-4 intein (GFP [1]; after 24 hours, 1 μM 4-HT) [fold] | fold higher GFP splicing efficiency than the original 3-2 intein (GFP [1]; after 24 hours, 1 μM 4-HT) [fold]
B1 | 22 | 32 | 10 | 18 | 45 | 33 | 15 | did not generate significant amounts of spliced protein | – | – | – | – | – | – | – | –
B2 | – | – | – | – | – | 73 | – | – | 43 | 72 | ~3 | ~5 | very low and often was not detectable | not observed | 3.8 | 2.2

— US9200045B2, “Small molecule-dependent inteins and uses thereof” (President and Fellows of Harvard College, priority 2011, dated 2015)
